From EP3815699A1, “NEW MEANS AND METHODS FOR THERAPY AND DIAGNOSIS OF […]” (Technische Universität München, priority 2019, dated 2021)

Biological target: His/HA-SUMO-2 (stably expressed in HepaRG cells) (UniProt P61956)
Test: Ni-NTA purification of covalent His/HA-SUMO-2 conjugates from infected HepaRG cells, anti-E2A immunoblot, densitometry normalised to E2A levels

Q: “E2A K94/132/202R, untagged (pCMX3b-E2AK94/132/202R / pE2A-SCM, or expressed from HAdV E2A SCM mutant virus) (from UniProt P03265 1-529)” was tested. Which reduction of E2A SUMOylation against HAdV wt infection did it give?
A: 70%
